Assay results reported in publication PMC5686067.

T1: sMepS-6×His-C (soluble MepS without its lipoprotein signal peptide, C-terminal His-tag), P0AFV4
T1 chain: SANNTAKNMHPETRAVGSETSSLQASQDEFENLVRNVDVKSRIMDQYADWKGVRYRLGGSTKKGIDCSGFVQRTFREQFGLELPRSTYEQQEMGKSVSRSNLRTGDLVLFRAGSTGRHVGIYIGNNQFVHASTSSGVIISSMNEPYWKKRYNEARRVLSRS


Assays:
[1] = molecular target: T1, sMepS-6×His-C (soluble MepS without its …); assay: ITC; conditions: chain shown with the change
[2] = molecular target: Prc (full-length, C-terminal His-tag) (E. coli) (UniProt P23865)
Prc (full-length, C-terminal His-tag) (E. coli), sequence (P23865 23-682 limits assumed): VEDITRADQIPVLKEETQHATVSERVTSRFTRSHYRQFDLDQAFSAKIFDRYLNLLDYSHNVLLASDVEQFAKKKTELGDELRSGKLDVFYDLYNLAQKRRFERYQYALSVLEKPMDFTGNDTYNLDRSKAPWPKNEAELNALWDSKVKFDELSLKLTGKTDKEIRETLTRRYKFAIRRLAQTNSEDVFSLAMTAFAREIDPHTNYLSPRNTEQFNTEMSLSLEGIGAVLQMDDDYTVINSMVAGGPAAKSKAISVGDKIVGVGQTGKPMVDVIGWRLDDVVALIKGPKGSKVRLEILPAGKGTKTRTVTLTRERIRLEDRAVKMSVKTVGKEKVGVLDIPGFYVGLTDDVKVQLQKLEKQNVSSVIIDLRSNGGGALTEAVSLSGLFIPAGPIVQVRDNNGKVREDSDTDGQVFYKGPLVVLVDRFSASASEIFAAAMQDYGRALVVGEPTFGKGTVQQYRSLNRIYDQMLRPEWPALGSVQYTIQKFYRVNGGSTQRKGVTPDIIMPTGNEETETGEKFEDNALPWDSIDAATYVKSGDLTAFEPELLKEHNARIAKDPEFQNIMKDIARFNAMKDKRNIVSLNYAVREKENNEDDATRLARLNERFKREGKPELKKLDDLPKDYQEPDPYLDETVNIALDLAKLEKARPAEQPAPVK

[3] = molecular target: sMepS-6×His-C (soluble MepS without its lipoprotein signal peptide, C-terminal His-tag) (E. coli) (UniProt P0AFV4); assay: ITC; iTC200, 20 °C, 20 mM HEPES pH 7.5, 300 mM NaCl, 2 mM 2-mercaptoethanol; 23 µM sMepS or Prc in the cell, 230 µM sNlpI (alone or with equimolar Prc) in the syringe; one binding site model
[4] = molecular target: Prc (full-length, C-terminal His-tag) (E. coli) (UniProt P23865); assay: as above

| Kd [1] | melting temperature (T m) of Prc-sNlpI in thermal shift assay (Prc alone 40.1 °C) [2] | Kd [3] | Kd [4] | Binder |
| --- | --- | --- | --- | --- |
| 1450 nM | – | – | – | sNlpI (soluble NlpI without its lipoprotein signal peptide), P0AFB1 A114W (protein) SNTSWRKSEVLAVPLQPTLQQEVILARMEQILASRALTDDERAQLLYERGVLYDSLGLRALARNDFSQALAIRPDMPEVFNYLGIYLTQAGNFDWAYEAFDSVLELDPTYNYAHLNRGIALYYGGRDKLAQDDLLAFYQDDPNDPFRSLWLYLAEQKLDEKQAKEVLKQHFEKSDKEQWGWNIVEFYLGNISEQTLMERLKADATDNTSLAEHLSETNFYLGKYYLSLGDLDSATALFKLAVANNVHNFVEHRYALLELSLLGQDQDDLAESDQQ |
| – | 53.6 °C | 750 nM | < 10 nM | sNlpI (soluble NlpI without its lipoprotein signal peptide) (natural protein) SNTSWRKSEVLAVPLQPTLQQEVILARMEQILASRALTDDERAQLLYERGVLYDSLGLRALARNDFSQALAIRPDMPEVFNYLGIYLTQAGNFDAAYEAFDSVLELDPTYNYAHLNRGIALYYGGRDKLAQDDLLAFYQDDPNDPFRSLWLYLAEQKLDEKQAKEVLKQHFEKSDKEQWGWNIVEFYLGNISEQTLMERLKADATDNTSLAEHLSETNFYLGKYYLSLGDLDSATALFKLAVANNVHNFVEHRYALLELSLLGQDQDDLAESDQQ |
